Tests used:
Assay in all cases: EMSA; competed by 10x and 100x cold probe; EMSA according to a previous study (ref 35); buffer, salt, pH and temperature not given
Conditions in all cases: protein: recombinant; tags: TF (trigger factor) fusion from pCold-TF; chain copies: 2; label: biotin
PbHB.G2.1 = molecular target: T1, PbHB.G2.1 (pear (Pyrus; species  in the …, UniProt A0A5N5HPW9 1-368)
T1 sequence: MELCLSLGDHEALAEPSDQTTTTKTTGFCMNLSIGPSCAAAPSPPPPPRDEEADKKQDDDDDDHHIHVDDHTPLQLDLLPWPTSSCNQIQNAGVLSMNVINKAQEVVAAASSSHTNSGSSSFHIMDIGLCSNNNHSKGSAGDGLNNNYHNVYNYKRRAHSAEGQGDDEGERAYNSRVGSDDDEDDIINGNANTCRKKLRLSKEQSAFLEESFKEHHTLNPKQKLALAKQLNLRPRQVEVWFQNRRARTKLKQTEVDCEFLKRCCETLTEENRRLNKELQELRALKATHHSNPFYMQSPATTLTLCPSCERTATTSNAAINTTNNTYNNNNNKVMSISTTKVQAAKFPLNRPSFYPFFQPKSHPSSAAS

PbHB.G7.2 = molecular target: T2, PbHB.G7.2 (pear (Pyrus; species  in the …, UniProt A0A5N5HLN1 1-287)
T2 sequence: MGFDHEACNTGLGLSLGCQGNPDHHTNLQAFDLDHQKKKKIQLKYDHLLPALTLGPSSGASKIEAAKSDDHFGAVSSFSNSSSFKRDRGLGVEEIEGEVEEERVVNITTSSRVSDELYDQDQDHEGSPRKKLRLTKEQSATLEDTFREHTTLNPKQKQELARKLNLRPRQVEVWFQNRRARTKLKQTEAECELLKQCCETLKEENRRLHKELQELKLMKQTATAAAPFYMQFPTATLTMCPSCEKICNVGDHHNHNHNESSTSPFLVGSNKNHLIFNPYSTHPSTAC

PbHB.G1 = molecular target: T3, PbHB.G1 (pear (Pyrus; species  in the …, UniProt UPI0020301D10 1-344)
T3 sequence: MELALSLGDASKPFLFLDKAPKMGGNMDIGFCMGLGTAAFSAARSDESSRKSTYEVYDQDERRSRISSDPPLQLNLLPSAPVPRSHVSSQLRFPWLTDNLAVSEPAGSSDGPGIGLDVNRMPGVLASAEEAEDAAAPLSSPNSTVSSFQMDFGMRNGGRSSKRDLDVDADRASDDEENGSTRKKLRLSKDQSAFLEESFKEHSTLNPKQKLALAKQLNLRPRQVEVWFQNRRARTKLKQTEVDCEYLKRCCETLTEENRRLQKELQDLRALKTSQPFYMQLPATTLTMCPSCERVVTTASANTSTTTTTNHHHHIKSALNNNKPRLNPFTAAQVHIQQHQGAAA

B1: PbACS1b promoter P17 probe 2 (40 bp) (dsDNA)
DNA 1: CCTCAAGGAAATAGTAATACCCTTTAGATTTGAAGTCCTA
DNA 2: TAGGACTTCAAATCTAAAGGGTATTACTATTTCCTTGAGG
binding result (PbHB.G2.1): binds

B2: PbACS1b promoter P9 probe (34 bp) (dsDNA)
DNA 1: CTTATGGGTCGGTTTTTCTACATTTGAATTTTGA
DNA 2: TCAAAATTCAAATGTAGAAAAACCGACCCATAAG
binding result (PbHB.G7.2): binds

B3: PbACS1b promoter P16 probe 1 (33 bp) (dsDNA)
DNA 1: TTATATGTTGTATCTTATTTCATCGTTGATTAC
DNA 2: GTAATCAACGATGAAATAAGATACAACATATAA
binding result (PbHB.G1): binds
